Reference: publication PMC8318587, “Structure-guided microbial targeting of antistaphylococcal prodrugs” (eLife, 2021)
Values after ≈ are worked out from the molar mass of the structure shown. Read-outs that look alike come from different tables or passages of the source.

Experiments:
S. aureus Newman [1] = assay: Minimum inhibitory concentration (MIC) in liquid LB media; type: cell-based; details: Staphylococcus aureus
Description: (§1) Antibiotic resistance frequency was determined on LB agar plates containing 4× and 10×, the minimum inhibitory concentrations of several antibiotics. MICs were determined for S. aureus Newman in liquid LB media. […] Briefly, S. aureus Newman was grown in LB media to late log-phase and centrifuged at 4000 × g for 15 min before resuspension at an OD600 nm of 30 (~1E11 CFU/mL) in LB media. One hundred microliter aliquots of concentrated S. aureus was plated in duplicate on selective and non-selective plates and incubated at 37°C. After 24 hr, mutation rates were calculated by counting the number of colonies present and dividing by the total number of colonies plated. Experiments were performed in triplicate.

S. aureus Newman [2] = type: cell-based, Staphylococcus aureus; details: for Mutational frequency at 4× MIC / Mutational frequency at 10× MIC: LB agar, 24 hr, mean ± SD
Description: as §1

[3] = substrate: CSCCC(=O)OCOc1ccc2c(c1)Oc1cc(OCOC(=O)CCSC)ccc1C21OC(=O)c2ccccc21; assay: Esterase substrate specificity, fluorogenic SAR library kinetics; type: biochemical, Staphylococcus aureus; details: other: SaFrmB 15 µg/mL, pH 7.5, 37°C
Description: (§2) Kinetic measurements were performed according to [White et al., 2018] with minor variation. Lyophilized human and mouse sera were resuspended according to manufacturer instructions in highly pure, filtered water at protein concentrations of 85 mg/mL and 70 mg/mL, respectively. One milliliter of resuspended serum was added to a 24 mL mastermix for a final concentration of 31.25 mM Tris pH 7.5, 312.5 mM NaCl, 1.25 mM MgCl2, 12.5% glycerol, and 3.4 mg/mL or 2.8 mg/mL protein for human and mouse serum, respectively. For purified proteins, 5 mL of a 75 µg/mL stock was added to yield a 20 mL mastermix containing 31.25 mM Tris pH 7.5, 312.5 mM NaCl, 1.25 mM MgCl2, 12.5% glycerol, and 18.75 µg/mL protein. Mastermix was stored on ice when not in use. Twenty microliters of mastermix was transferred to a black, 96-well half area microplate (Corning, CLS3993) and prewarmed at 37°C. Fluorogenic substrates were prepared as 10 mM stock solutions in 100% DMSO and were diluted in water to a starting concentration of 500 µM. Enzyme catalyzed substrate hydrolysis was initiated by addition of 5 µL substrate dilution in technical duplicate to the prewarmed serum or protein solution. Final assay concentrations were as follows: 25 mM Tris pH 7.5, 250 mM NaCl, 1 mM MgCl2, 10% glycerol, and protein at a concentration of 2.72 mg/mL (human serum), 2.24 mg/mL (mouse serum), or 15 µg/mL (FrmB, GloB). The resulting change in fluorescence (λex = 485 nm, λem = 520 nm) was followed for 15 min at 37°C, collecting data every 30 s on a FLUOstar Omega microplate reader (BMG Labtech). Fluorescence measurements were converted to molar concentrations using a fluorescein standard curve (2.5 nmol–0.6 pmol). The initial rates of reaction were measured three independent times with two technical replicates per measurement and fit to a line using GraphPad Prism (GraphPad Software, La Jolla, CA). Initial rates of reaction were plotted versus the concentration of substrate and fit to a standard Michaelis–Menten equation (v = Vmax[S]/(Km + [S])), yielding estimates of Vmax and Km. Values for kcat and kcat/Km were calculated based on amount of enzyme added when purified enzymes were used.

[4] = substrate: CCCOCC(=O)OCOc1ccc2c(c1)Oc1cc(OCOC(=O)COCCC)ccc1C21OC(=O)c2ccccc21; assay: as above; type: biochemical, Staphylococcus aureus; details: other: SaFrmB 15 µg/mL, pH 7.5, 37°C
Description: as §2

[5] = substrate: COCCC(=O)OCOc1ccc2c(c1)Oc1cc(OCOC(=O)CCOC)ccc1C21OC(=O)c2ccccc21; assay: as above; type: biochemical, Staphylococcus aureus; details: other: SaFrmB 15 µg/mL, pH 7.5, 37°C
Description: as §2

[6] = substrate: CCCC(=O)OCOc1ccc2c(c1)Oc1cc(OCOC(=O)CCC)ccc1C21OC(=O)c2ccccc21; assay: as above; type: biochemical, Staphylococcus aureus; details: other: SaFrmB 15 µg/mL, pH 7.5, 37°C
Description: as §2

[7] = substrate: CCSCCC(=O)OCOc1ccc2c(c1)Oc1cc(OCOC(=O)CCSCC)ccc1C21OC(=O)c2ccccc21; assay: as above; type: biochemical, Staphylococcus aureus; details: other: SaFrmB 15 µg/mL, pH 7.5, 37°C
Description: as §2

[8] = substrate: CC(C)SCC(=O)OCOc1ccc2c(c1)Oc1cc(OCOC(=O)CSC(C)C)ccc1C21OC(=O)c2ccccc21; assay: as above; type: biochemical, Staphylococcus aureus; details: other: SaFrmB 15 µg/mL, pH 7.5, 37°C
Description: as §2

[9] = substrate: COC(C)(C)C(=O)OCOc1ccc2c(c1)Oc1cc(OCOC(=O)C(C)(C)OC)ccc1C21OC(=O)c2ccccc21; assay: as above; type: biochemical, Staphylococcus aureus; details: other: SaFrmB 15 µg/mL, pH 7.5, 37°C
Description: as §2

[10] = substrate: CCOCC(=O)OCOc1ccc2c(c1)Oc1cc(OCOC(=O)COCC)ccc1C21OC(=O)c2ccccc21; assay: as above; type: biochemical, Staphylococcus aureus; details: other: SaFrmB 15 µg/mL, pH 7.5, 37°C
Description: as §2

[11] = substrate: CCOC(C)C(=O)OCOc1ccc2c(c1)Oc1cc(OCOC(=O)C(C)OCC)ccc1C21OC(=O)c2ccccc21; assay: as above; type: biochemical, Staphylococcus aureus; details: other: SaFrmB 15 µg/mL, pH 7.5, 37°C
Description: as §2

[12] = substrate: CCCCC(=O)OCOc1ccc2c(c1)Oc1cc(OCOC(=O)CCCC)ccc1C21OC(=O)c2ccccc21; assay: as above; type: biochemical, Staphylococcus aureus; details: other: SaFrmB 15 µg/mL, pH 7.5, 37°C
Description: as §2

[13] = substrate: COC(C)C(=O)OCOc1ccc2c(c1)Oc1cc(OCOC(=O)C(C)OC)ccc1C21OC(=O)c2ccccc21; assay: as above; type: biochemical, Staphylococcus aureus; details: other: SaFrmB 15 µg/mL, pH 7.5, 37°C
Description: as §2

[14] = substrate: CC(C)OCC(=O)OCOc1ccc2c(c1)Oc1cc(OCOC(=O)COC(C)C)ccc1C21OC(=O)c2ccccc21; assay: as above; type: biochemical, Staphylococcus aureus; details: other: SaFrmB 15 µg/mL, pH 7.5, 37°C
Description: as §2

[15] = substrate: COCC(=O)OCOc1ccc2c(c1)Oc1cc(OCOC(=O)COC)ccc1C21OC(=O)c2ccccc21; assay: as above; type: biochemical, Staphylococcus aureus; details: other: SaFrmB 15 µg/mL, pH 7.5, 37°C
Description: as §2

[16] = S. aureus Newman, liquid LB media, read-out: MIC

CCC[C@@H]1C[C@@H](C(=O)N[C@@H]([C@H]2O[C@H](SC)[C@H](O)[C@@H](O)[C@H]2O)[C@H](C)Cl)N(C)C1 [Clindamycin]
MIC (S. aureus Newman [1]; [16]): 0.25 µg/mL (≈ 0.588 µM)
Mutational frequency at 4× MIC (S. aureus Newman [2]): <1 E-10
Mutational frequency at 10× MIC (S. aureus Newman [2]): <1 E-10

CC(=O)NC[C@H]1CN(c2ccc(N3CCOCC3)c(F)c2)C(=O)O1 [Linezolid]
MIC (S. aureus Newman [1]; [16]): 1.67 µg/mL (≈ 4.95 µM)
Mutational frequency at 4× MIC (S. aureus Newman [2]): <1 E-10
Mutational frequency at 10× MIC (S. aureus Newman [2]): <1 E-10

CCOc1ccc2ccccc2c1C(=O)N[C@@H]1C(=O)N2[C@@H]1SC(C)(C)[C@@H]2C(=O)O [Nafcillin]
MIC (S. aureus Newman [1]; [16]): 0.5 µg/mL (≈ 1.21 µM)
Mutational frequency at 4× MIC (S. aureus Newman [2]): <1 E-10
Mutational frequency at 10× MIC (S. aureus Newman [2]): <1 E-10

CO[C@H]1/C=C/O[C@@]2(C)Oc3c(C)c(O)c4c(O)c(c(/C=N/N5CCN(C)CC5)c(O)c4c3C2=O)NC(=O)/C(C)=C\C=C\[C@H](C)[C@H](O)[C@@H](C)[C@@H](O)[C@@H](C)[C@H](OC(C)=O)[C@@H]1C [Rifampicin]
MIC (S. aureus Newman [1]; [16]): 0.0075 µg/mL (≈ 0.00911 µM)
Mutational frequency at 4× MIC (S. aureus Newman [2]): 8.96 ± 0.20 E-08
Mutational frequency at 10× MIC (S. aureus Newman [2]): 7.64 ± 2.10 E-08
Spontaneous resistance frequency (S. aureus Newman [2]; at 4 and 10 times the MIC): ~ 8E-8

CN[C@H](CC(C)C)C(=O)N[C@H]1C(=O)N[C@@H](CC(N)=O)C(=O)N[C@H]2C(=O)N[C@H]3C(=O)N[C@H](C(=O)N[C@H](C(=O)O)c4cc(O)cc(O)c4-c4cc3ccc4O)[C@H](O)c3ccc(c(Cl)c3)Oc3cc2cc(c3O[C@@H]2O[C@H](CO)[C@@H](O)[C@H](O)[C@H]2O[C@H]2C[C@](C)(N)[C@H](O)[C@H](C)O2)Oc2ccc(cc2Cl)[C@H]1O [Vancomycin]
MIC (S. aureus Newman [1]; NEWMAN): 2 µg/mL (≈ 1.38 µM)
Mutational frequency at 4× MIC (S. aureus Newman [2]): <1 E-10
Mutational frequency at 10× MIC (S. aureus Newman [2]): <1 E-10

B1: SaFrmB (Staphylococcus aureus subsp. aureus str. Newman) (protein)
chain: MAYISLNYHSPTIGMHQNLTVILPEDQSFFNSDTTVKPLKTLMLLHGLSSDETTYMRYTSIERYANEHKLAVIMPNVDHSAYANMAYGHSYYDYILEVYDYVHQIFPLSKKRDDNFIAGHSMGGYGTIKFALTQGDKFAKAVPLSAVFEAQNLMDLEWNDFSKEAIIGNLSSVKGTEHDPYYLLDKAVAEDKQIPKLLIMCGKQDFLYQDNLDFIDYLSRINVPYQFEDGPGDHDYAYWDQAIKRAITWMVND
notes: made in house; host or cells: E. coli BL21 (DE3)
Km [3]: 52.7 µM
Vmax [3]: 0.505 pmol*min-1*μg protein-1
kcat [3]: 0.0950 10-3 s-1
kcat/Km [3]: 1.80 M⁻¹ s⁻¹
Km [4]: 9.95 µM
Vmax [4]: 0.621 pmol*min-1*μg protein-1
kcat [4]: 0.117 10-3 s-1
kcat/Km [4]: 11.7 M⁻¹ s⁻¹
Km [5]: 30.0 µM
Vmax [5]: 0.183 pmol*min-1*μg protein-1
kcat [5]: 0.0345 10-3 s-1
kcat/Km [5]: 1.15 M⁻¹ s⁻¹
Km [6]: 30.4 µM
Vmax [6]: 0.149 pmol*min-1*μg protein-1
kcat [6]: 0.0280 10-3 s-1
kcat/Km [6]: 0.921 M⁻¹ s⁻¹
Km [7]: 11.1 µM
Vmax [7]: 0.0295 pmol*min-1*μg protein-1
kcat [7]: 0.00556 10-3 s-1
kcat/Km [7]: 0.500 M⁻¹ s⁻¹
Km [8]: 36.3 µM
Vmax [8]: 0.629 pmol*min-1*μg protein-1
kcat [8]: 0.118 10-3 s-1
kcat/Km [8]: 3.27 M⁻¹ s⁻¹
Km [9]: 74.2 µM
Vmax [9]: 0.163 pmol*min-1*μg protein-1
kcat [9]: 0.0307 10-3 s-1
kcat/Km [9]: 0.414 M⁻¹ s⁻¹
Km [10]: 13.9 µM
Vmax [10]: 2.04 pmol*min-1*μg protein-1
kcat [10]: 0.385 10-3 s-1
kcat/Km [10]: 27.7 M⁻¹ s⁻¹
Km [11]: 18.3 µM
Vmax [11]: 0.163 pmol*min-1*μg protein-1
kcat [11]: 0.0307 10-3 s-1
kcat/Km [11]: 1.68 M⁻¹ s⁻¹
Km [12]: 26.5 µM
Vmax [12]: 0.0637 pmol*min-1*μg protein-1
kcat [12]: 0.0120 10-3 s-1
kcat/Km [12]: 0.452 M⁻¹ s⁻¹
Km [13]: 107 µM
Vmax [13]: 2.57 pmol*min-1*μg protein-1
kcat [13]: 0.485 10-3 s-1
kcat/Km [13]: 4.52 M⁻¹ s⁻¹
Km [14]: 9.17 µM
Vmax [14]: 0.597 pmol*min-1*μg protein-1
kcat [14]: 0.112 10-3 s-1
kcat/Km [14]: 12.3 M⁻¹ s⁻¹
Km [15]: 30.3 µM
Vmax [15]: 5.98 pmol*min-1*μg protein-1
kcat [15]: 1.13 10-3 s-1
kcat/Km [15]: 37.2 M⁻¹ s⁻¹
